Measurements published in patent publication US20250361274A1, “PEPTIDE AND PEPTIDE-CONTAINING AGENT” (PEPTIDREAM INC., priority 2022, published 2025).
Numbered stars: 1 amine (or outer) side, 2 acyl side, 3 side chain; on linkers, the order of the positions; unused ones are H or OH. Bridge positions count the residues as written; N and C are the ends. Square brackets hold non-standard residues; d marks the D form. Side chains are listed from the residue outwards. Ends that are not written are not given here. Peptide text beside a SMILES is read from it. I, II: the chains in the order shown. * marks the point of attachment. ξ: configuration not given here. KCOpipzaa = N6-(4-(carboxymethyl)piperazine-1-carbonyl)-L-lysine, O=C(NCCCC[C@H](N[*:1])C(=O)[*:2])N1CCN(CC(=O)[*:3])CC1; Bph3F = (S)-2-amino-3-(3'-fluoro-[1,1'-biphenyl]-4-yl)propanoic acid, O=C([C@H](Cc1ccc(-c2cccc(F)c2)cc1)N[*:1])[*:2]; Cha4tH = (S)-2-amino-3-((1r,4S)-4-hydroxycyclohexyl)propanoic acid, O=C([C@H](C[C@H]1CC[C@H](O[*:3])CC1)N[*:1])[*:2]; X6 = N=C(N)NCCC[C@H](CC(=O)[C@H](CCCCNC(=O)N1CCN(CC(=O)O)CC1)N[*:2])C(=O)C[C@@H](Cc1ccc(-c2ccccc2)nc1)C(=O)[*:1]; X4 = O=C(O)c1ccc(C[C@H](N[*:1])C(=O)C[C@@H](CO)C(=O)[*:2])cc1; 3Pal(6-Ph) = N[C@@H](Cc1ccc(-c2ccccc2)nc1)C(=O)O; Phe(4-COOH) = N[C@@H](Cc1ccc(C(=O)O)cc1)C(=O)O; NMePhe(3-Me) = CN[C@@H](Cc1cccc(C)c1)C(=O)O; Piperazinyl(4-CH2COOH) = O=C(O)CN1CCN(*)CC1; Bip = N[C@@H](Cc1ccc(-c2ccccc2)cc1)C(=O)O; Pro(cis-4-F) = O=C(O)[C@@H]1C[C@H](F)CN1; Ala(cPent) = N[C@@H](CC1CCCC1)C(=O)O; cisHyp = O=C(O)[C@@H]1C[C@H](O)CN1; Hyp = O=C(O)[C@@H]1C[C@@H](O)CN1; NMeF = CN[C@@H](Cc1ccccc1)C(=O)O; 4Pal = N[C@@H](Cc1ccncc1)C(=O)O; Aad = N[C@@H](CCCC(=O)O)C(=O)O; Cha = N[C@@H](CC1CCCCC1)C(=O)O; Abu = CC[C@H](N)C(=O)O; X5 = O=C(C[*:1])[*:2]; CO = O=C([*:1])[*:2]; ξC = NC(CS)C(=O)O; βAla = NCCC(=O)O

Assays:
BMP4 = molecular target: T1, BMP4 (Homo sapiens, UniProt P12644); assay: BMP4 signal transduction inhibitory activity: SMAD1 phosphorylation by BMP4 stimulus, AlphaLISA SureFire, A549 cells; assay type: cell-based; details: for aLISA BMP4: A549 cells, peptides of Synthesis 2
T1 sequence (P12644 293-408): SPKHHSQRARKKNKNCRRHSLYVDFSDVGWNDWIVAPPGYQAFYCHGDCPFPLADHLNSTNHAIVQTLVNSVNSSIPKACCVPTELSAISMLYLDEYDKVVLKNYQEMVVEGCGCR

BMP7 = molecular target: T2, BMP7 (Homo sapiens, UniProt P18075); assay: BMP7 signal transduction inhibitory activity: SMAD1 phosphorylation by BMP7 stimulus, A549 cells; assay type: cell-based; details: for aLISA BMP7: A549 cells, peptides of Synthesis 2
T2 sequence (P18075 293-431): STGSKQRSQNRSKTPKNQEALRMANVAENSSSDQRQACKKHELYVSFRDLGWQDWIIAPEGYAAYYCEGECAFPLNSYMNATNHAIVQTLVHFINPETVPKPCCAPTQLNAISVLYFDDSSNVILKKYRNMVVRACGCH
Method in brief: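 A549 cells were stimulated with 10 nM BMP7, and peptide inhibition of signalling was measured as SMAD1 phosphorylation. Peptides were tested at three concentrations, in sets ranging from 1–100 nM to 100–1,000 nM, or as eight-point 1/3 dilution series starting at 100 nM or 1,000 nM.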

[1] = SMAD1 phosphorylation, peptide 0.02, 0.2, 2 nM
[2] = 10 nM BMP7, peptide 1, 10, 100 nM
[3] = BMP4 0.2 nM stimulus, peptide conc. in assay 0.2, 2, 20 nM
[4] = BMP7 10 nM stimulus, peptide conc. in assay 1, 10, 100 nM
[5] = BMP4 0.2 nM stimulus, peptide conc. in assay 0.02, 0.2, 2 nM, class symbols
[6] = BMP7 10 nM stimulus, peptide conc. in assay 100, 300, 1000 nM, class symbols
[7] = SMAD1 phosphorylation, BMP4 0.2 nM, peptide conc. in assay 0.2, 2, 20 nM
[8] = SMAD1 phosphorylation, BMP7 10 nM, peptide conc. in assay 1, 10, 100 nM

Molecule: 33 ({CH2CO}-ARVYVDR[3Pal(6-Ph)]PYP[3Pal(6-Ph)][4Pal][Phe(4-COOH)][Phe(4-COOH)]SCG-NH2; thioether N-17; not fully specified) [compound 33]
- aLISA BMP4 (BMP4; [1]): C (showed an inhibitory activity of less than 50% in 0.2 nM-addition zone and showed an inhibitory activity of 50% or more in 2 nM-addition zone were defined as B or C)
- aLISA BMP7 (BMP7; [2]): ND (the inhibitory activity was less than 30% at the maximum concentration evaluated)

Molecule: 399 (FG[NMeF]G[Bip]GDE[Cha]Q[NMeF]L[Abu]CG-NH2; not fully specified) [compound 399]
- aLISA BMP4 (0.2 nM) % inh (BMP4; [3]): ND (the inhibitory activity was less than 30% at the maximum concentration evaluated)
- aLISA BMP7 (10 nM) % inh (BMP7; [4]): C (showed less than 30% of inhibitory activity in a zone to which the peptide was added in an amount of 1 nM and showed 30% or more of inhibitory activity in 10 nM-addition zone)

Molecule: 390 (FG[NMeF]G[Bip]GDD[Cha]A[NMePhe(3-Me)]LHCG-NH2) [compound 390]
- aLISA BMP4 (0.2 nM) % inh (BMP4; BMP4 0.2 nM stimulus, peptide conc. in assay 2, 20, 200 nM): B (showed less than 30% of inhibitory activity in 20 nM-addition zone and showed 30% or more of inhibitory activity in 200 nM-addition zone)
- aLISA BMP7 (10 nM) % inh (BMP7; BMP7 10 nM stimulus, peptide conc. in assay 10, 30, 90 nM): E (showed 30% or more of inhibitory activity in 10 nM-addition zone)

Molecule: 17 ({CH2CO}-ARVYVDR[Bip]GYP[Bip]Y[Phe(4-COOH)][Phe(4-COOH)]SCG-NH2; thioether N-17; not fully specified) [compound 17]
- aLISA BMP4 (BMP4; [1]): A (showed an inhibitory activity of 50% or more in a zone to which the peptide was added to in an amount of 0.2 nM)
- aLISA BMP7 (BMP7; [2]): C (showed less than 50% of inhibitory activity in 10 nM-addition zone and showed 50% or more of inhibitory activity in 100 nM-addition zone)

Molecule: 283 (ERV[Phe(4-COOH)]V[KCOpipzaa]R[3Pal(6-Ph)][KCOpipzaa]Y[Hyp][Bip][4Pal][Phe(4-COOH)][Phe(4-COOH)]SC[βAla]) [compound 283]
- aLIZA BMP4 (0.2 nM) % inh (BMP4; [5]): B (showed less than 30% of inhibitory activity in 0.02 nM-addition zone and showed 30% or more of inhibitory activity in 0.2 nM-addition zone)
- aLIZA BMP7 (10 nM) % inh (BMP7; [6]): H (showed less than 30% of inhibitory activity in 300 nM-addition zone and showed 30% or more of inhibitory activity in 1,000 nM-addition zone)

Molecule: 318 (ERV[Phe(4-COOH)][Cha4tH][KCOpipzaa]R[3Pal(6-Ph)][KCOpipzaa]Y[Hyp][Bph3F]Y[Phe(4-COOH)][Phe(4-COOH)]SCG-NH2; not fully specified) [compound 318]
- aLIZA BMP4 (0.2 nM) % inh (BMP4; BMP4 0.2 nM, peptide 0.02, 0.2, 2 nM, Table 6): B (showed less than 30% of inhibitory activity in 0.02 nM-addition zone and showed 30% or more of inhibitory activity in 0.2 nM-addition zone)
- aLIZA BMP7 (10 nM) % inh (BMP7; BMP7 10 nM, peptide 10, 100, 1000 nM, Table 6): D (showed less than 30% of inhibitory activity in a zone to which the peptide was added in an amount of 10 nM and showed 30% or more of inhibitory activity in 100 nM-addition zone)

Molecule: 109 ({CH2CO}-ERVYVDR[Bip]PY[Pro(cis-4-F)][Bip]Y[Phe(4-COOH)][Phe(4-COOH)]SC[βAla][dE]-OH; thioether N-17; not fully specified) [compound 109]
- aLISA BMP4 (BMP4; inhibition of SMAD1 phosphorylation by BMP4 stimulus, classes A-C, ND): C (showed an inhibitory activity of less than 50% in 0.2 nM-addition zone and showed an inhibitory activity of 50% or more in 2 nM-addition zone were defined as B or C)
- aLISA BMP7 (BMP7; inhibition of SMAD1 phosphorylation by BMP7 stimulus, classes A-D, ND): C (showed less than 50% of inhibitory activity in 10 nM-addition zone and showed 50% or more of inhibitory activity in 100 nM-addition zone)

Molecule: 335 (FG[NMeF]G[Bip]GDD[Ala(cPent)]A[NMeF]LHCG-NH2; not fully specified (N-terminus, bridges)) [compound 335]
- aLISA BMP4 (0.2 nM) % inh (BMP4; [7]): ND (the inhibitory activity was less than 30% at the maximum concentration evaluated)
- aLISA BMP7 (10 nM) % inh (BMP7; [8]): D (showed less than 30% of inhibitory activity in 10 nM-addition zone and showed 30% or more of inhibitory activity in 100 nM-addition zone)

Molecule: 322 ([4Pal]G[NMeF]G[Bip]GDD[Cha]A[NMeF]LHCG-NH2) [compound 322]
- aLISA BMP4 (0.2 nM) % inh (BMP4; [7]): ND (the inhibitory activity was less than 30% at the maximum concentration evaluated)
- aLISA BMP7 (10 nM) % inh (BMP7; [8]): D (showed less than 30% of inhibitory activity in 10 nM-addition zone and showed 30% or more of inhibitory activity in 100 nM-addition zone)

Molecule: 275 (ERV[Phe(4-COOH)]VDR[3Pal(6-Ph)][KCOpipzaa]Y[Hyp][Bip]Y[Phe(4-COOH)][Phe(4-COOH)]SCG-NH2; not fully specified) [compound 275]
- aLIZA BMP4 (0.2 nM) % inh (BMP4; [5]): B (showed less than 30% of inhibitory activity in 0.02 nM-addition zone and showed 30% or more of inhibitory activity in 0.2 nM-addition zone)
- aLIZA BMP7 (10 nM) % inh (BMP7; [6]): G (showed less than 30% of inhibitory activity in 100 nM-addition zone and showed 30% or more of inhibitory activity in 300 nM-addition zone)

Molecule: CC(C)[C@@H]1NC(=O)[C@H](Cc2ccc(C(=O)O)cc2)NC(=O)[C@H](C(C)C)NC(=O)[C@H](CCCNC(=N)N)NC(=O)[C@H](CCC(=O)O)NC(=O)CSCC(C(=O)NCC(N)=O)NC(=O)[C@H](CO)CC(=O)[C@H](Cc2ccc(C(=O)O)cc2)NC(=O)[C@H](Cc2ccc(C(=O)O)cc2)NC(=O)[C@H](Cc2ccc(O)cc2)NC(=O)[C@H](Cc2ccc(-c3ccccc3)cc2)NC(=O)[C@@H]2C[C@@H](O)CN2C(=O)[C@H](Cc2ccc(O)cc2)NC(=O)[C@H](CCCCNC(=O)N2CCN(CC(=O)O)CC2)NC(=O)[C@H](Cc2ccc(-c3ccccc3)nc2)CC(=O)[C@H](CCCNC(=N)N)CC(=O)[C@H](CCCCNC(=O)N2CCN(CC(=O)O)CC2)NC1=O (stereo partly drawn) [SEQ ID No. 277, ClAc-E-R-V-F4COO-V-KCOpipzaa-R-3Py6Ph-KCOpipzaa-Y-Hyp-Bph-Y-F4COO-F4COO-S-C-G-NH2] (I: K([CO-Piperazinyl(4-CH2COOH)])Y[Hyp][Bip]Y[Phe(4-COOH)][X4][ξC]G-NH2 / II: ERV[Phe(4-COOH)]V; linker I:8-II:N via X5; linker I:N-II:C via X6)
- BMP4 inhibitory activity (in words) (BMP4): same level of the BMP4 inhibitory activity as Noggin
- aLISA BMP4 (BMP4; [1]): A (showed an inhibitory activity of 50% or more in a zone to which the peptide was added to in an amount of 0.2 nM)
- aLISA BMP7 (BMP7; [2]): C (showed less than 50% of inhibitory activity in 10 nM-addition zone and showed 50% or more of inhibitory activity in 100 nM-addition zone)

Molecule: 401 (FG[NMeF]G[Bip]GDE[Cha][Aad][NMeF]L[Phe(4-COOH)]CG-NH2; not fully specified) [compound 401]
- aLISA BMP4 (0.2 nM) % inh (BMP4; [3]): ND (the inhibitory activity was less than 30% at the maximum concentration evaluated)
- aLISA BMP7 (10 nM) % inh (BMP7; [4]): C (showed less than 30% of inhibitory activity in a zone to which the peptide was added in an amount of 1 nM and showed 30% or more of inhibitory activity in 10 nM-addition zone)

Molecule: 280 (ERV[Phe(4-COOH)]VDR[3Pal(6-Ph)][KCOpipzaa]Y[Hyp][Bip][4Pal][Phe(4-COOH)][Phe(4-COOH)]SC[βAla]) [compound 280]
- aLIZA BMP4 (0.2 nM) % inh (BMP4; [5]): B (showed less than 30% of inhibitory activity in 0.02 nM-addition zone and showed 30% or more of inhibitory activity in 0.2 nM-addition zone)
- aLIZA BMP7 (10 nM) % inh (BMP7; [6]): H (showed less than 30% of inhibitory activity in 300 nM-addition zone and showed 30% or more of inhibitory activity in 1,000 nM-addition zone)

Molecule: 403 (FG[NMeF]G[Bip]GDE[Cha][Aad][NMeF]L[cisHyp]CG-NH2; not fully specified) [compound 403]
- aLISA BMP4 (0.2 nM) % inh (BMP4; [3]): ND (the inhibitory activity was less than 30% at the maximum concentration evaluated)
- aLISA BMP7 (10 nM) % inh (BMP7; [4]): C (showed less than 30% of inhibitory activity in a zone to which the peptide was added in an amount of 1 nM and showed 30% or more of inhibitory activity in 10 nM-addition zone)
